Measurements from publication PMC4872087 (Nucleic Acids Research, 2016).
Where “and” joins values, the source holds several entries; their conditions need not be identical. Identical values can stand only once. Ends that are not written are not given here. Me3 = trimethyl (trimethylated lysine)

Legend:
[1] = target: Histone H3K4me3 (Homo sapiens) (UniProt P68431); assay: ITC; conditions: cited from earlier work
[2] = target: T1, His-JMJD2C(874–988) (murine, UniProt Q8VCD7 874-988); assay: fluorescence polarisation; KD determination of the binding of FL-H3K4me3 to JMJD2C-Td; same optimization route as for Spindlin1; conditions: both partners purified
T1 construct: JMJD2C (lysine demethylase), murine, amino acids 874-988, double Tudor domain; Modified pET15b with a minimal, non-cleavable hexahistidine tag; also called JMJD2C-Td; JMJD2C-TD; source: E. coli BL21(DE3) codon plus, purified (Talon resin, gel filtration)
T1 sequence (looked up): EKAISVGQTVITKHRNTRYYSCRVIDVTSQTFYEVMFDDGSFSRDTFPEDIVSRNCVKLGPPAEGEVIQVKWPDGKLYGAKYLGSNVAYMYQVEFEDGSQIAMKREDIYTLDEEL

[3] = target: T2, His-Spindlin1(49–262) (human, UniProt Q9Y657 49-262); assay: fluorescence polarisation; His-Spindlin1(49–262) 0.06 to 750 nM titrated against 10 nM FL-H3K4me3; 60 min at 25°C; corrected for unspecific binding with 10 μM unlabeled H3(1–12)K4me3; one-site binding fit; 25 mM Hepes pH 7.5, 100 mM NaCl, 1 mg/ml BSA, 0.05% CHAPS; conditions: both partners purified
T2 construct: Spindlin1, human, amino acids 49-262; Modified pET15b with a minimal, non-cleavable hexahistidine tag; also called recombinant Spindlin1; source: E. coli BL21(DE3) codon plus, purified (Talon beads, gel filtration on superdex S75)

[4] = target: T1, His-JMJD2C(874–988); assay: fluorescence polarisation; FP displacement assay: 10 μM His-JMJD2C(874–988), 15 nM FL-H3K4me3, dilution series of unlabeled H3(1–12)K4me3; conditions: both partners purified
[5] = target: T2, His-Spindlin1(49–262); assay: fluorescent thermal shift assay (FTSA); 0.1 mg/ml His-Spindlin1(49–262), 5x SYPRO Orange, dilution series of H3(1–12)K4me3; 100 mM Hepes pH 7.5, 150 mM NaCl; KD by regression of Tm against ligand concentration; conditions: both partners purified
[6] = target: T1, His-JMJD2C(874–988); assay: fluorescent thermal shift assay (FTSA); 0.4 mg/ml His-JMJD2C(874–988), 5x SYPRO Orange, dilution series of H3(1–12)K4me3; KD by regression of Tm against ligand concentration; conditions: both partners purified
[7] = target: T3, Spindlin1, expressed by HL-60 suspension cells (human (endogenous in HL-60), UniProt Q9Y657 1-262); assay: cellular thermal shift assay (CETSA) on cell lysate; HL-60 cell lysate treated with 500 μM H3(1–12)K4me3 or, as control, H3(1–21)K4me0 at 37°C for 60 min; heated 3 min at a temperature gradient; soluble Spindlin1 by Western blot; apparent Tagg; conditions: one partner purified
T3 construct: Spindlin1, endogenous in HL-60 cells, detected by Western blot with an anti-Spindlin1 antibody; also called Spindlin1 (CETSA); source: endogenous, HL-60 cell lysate

[8] = target: T2, His-Spindlin1(49–262); assay: AlphaScreen or HTRF; AlphaLISA displacement assay: 15 nM His-Spindlin1(49–262), 30 nM biotin-H3(1–23)K4me3, dilution series of unlabeled competitor; incubation 15, 30, 60 and 90 min (IC50 values in that order); 25 mM Hepes pH 7.5, 100 mM NaCl, 1 mg/ml BSA, 0.05% CHAPS; 25°C; conditions: both partners purified
[9] = target: T1, His-JMJD2C(874–988); assay: AlphaScreen or HTRF; AlphaLISA displacement assay with His-JMJD2C(874–988) and biotin-H3(1–23)K4me3 (methods: 300 nM and 25 nM; legend: 5 μM and 200 nM), dilution series of unlabeled H3(1–12)K4me3; beads 0.02 mg/ml; conditions: both partners purified
[10] = target: T2, His-Spindlin1(49–262); assay: fluorescence polarisation; FP displacement assay: 100 nM His-Spindlin1(49–262), 10 nM FL-H3K4me3, dilution series of unlabeled competitor; incubation 15, 30, 60 and 90 min (IC50 values in that order); 25°C; conditions: both partners purified

T2 sequence (Q9Y657 49-262): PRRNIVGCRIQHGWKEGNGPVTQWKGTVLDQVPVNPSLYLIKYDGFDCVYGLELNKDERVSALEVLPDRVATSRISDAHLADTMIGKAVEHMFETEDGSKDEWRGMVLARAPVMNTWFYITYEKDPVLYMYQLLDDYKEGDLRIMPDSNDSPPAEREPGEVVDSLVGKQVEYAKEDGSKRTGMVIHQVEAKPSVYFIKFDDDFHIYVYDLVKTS
T3 sequence (Q9Y657 whole entry): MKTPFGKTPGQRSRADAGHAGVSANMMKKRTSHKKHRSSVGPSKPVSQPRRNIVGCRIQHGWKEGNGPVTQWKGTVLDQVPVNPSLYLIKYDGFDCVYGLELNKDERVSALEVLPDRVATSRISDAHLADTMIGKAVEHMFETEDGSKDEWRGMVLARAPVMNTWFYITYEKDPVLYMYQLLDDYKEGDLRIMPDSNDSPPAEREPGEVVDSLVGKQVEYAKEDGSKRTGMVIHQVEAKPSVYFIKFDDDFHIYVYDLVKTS

**Q.** Which Kd [1] does the source give for Spindlin1 (from UniProt Q9Y657) here?
**A.** The Kd was 0.25 µM.

B1: FL-H3K4me3 (peptide)
peptide: ARTKQTARKSTGGK
modifications: trimethylated lysine at position 4; mixed isomers of 5-(and-6)-carboxyfluorescein coupled to K14 side chain
notes: histone H3, N-terminal tail; also called fluorescent probe; fluorescein labeled peptide derived from histone H3; source: synthetic peptide, custom synthesized by Peptide Specialty Laboratories GmbH
**Q.** With B1 as the molecule, how does the Kd [2] read?
**A.** Its Kd is 14.5 ± 1.9 µM.

**Q.** And the Kd [3]?
**A.** The Kd was 0.031 µM.

B2: H3(1–12)K4me3 (peptide)
peptide: ARTK(Me3)QTARKSTG
notes: histone H3, amino acids 1-12; Free N-terminus (H2N-) and free C-terminus (-COOH) as printed; also called unlabeled H3K4me3 peptide; unlabeled H3(1–12)K4me3; source: synthetic peptide, custom synthesized by Peptide Specialty Laboratories GmbH
**Q.** With B2 as the molecule, how does the IC50 [4] read?
**A.** Its IC50 is 19.1 ± 2.1 µM.

**Q.** And the Kd [5]?
**A.** The Kd was 0.38 µM.

**Q.** And the Kd [6]?
**A.** The Kd was 12.5 µM and 13.3 µM.

**Q.** And the “ΔTagg (against lysate treated with H3(1–21)K4me0)” value [7]?
**A.** Its value is 5.9 °C.

**Q.** What about the IC50 [8] of the same molecule?
**A.** The IC50 was 118 nM (3×) and 116 nM.

**Q.** And the IC50 [9]?
**A.** Its IC50 is 4.5 ± 0.2 µM.

**Q.** And the IC50 [10]?
**A.** The IC50 was 0.18 µM and 0.232 µM and 0.202 µM and 0.201 µM.
